Values quoted from earlier work, collected in article PMC4028615.

Target: integrin (LFA-1) (Homo sapiens) (UniProt P20701)
Sequence (P20701 26-1090, chain 1 of 2): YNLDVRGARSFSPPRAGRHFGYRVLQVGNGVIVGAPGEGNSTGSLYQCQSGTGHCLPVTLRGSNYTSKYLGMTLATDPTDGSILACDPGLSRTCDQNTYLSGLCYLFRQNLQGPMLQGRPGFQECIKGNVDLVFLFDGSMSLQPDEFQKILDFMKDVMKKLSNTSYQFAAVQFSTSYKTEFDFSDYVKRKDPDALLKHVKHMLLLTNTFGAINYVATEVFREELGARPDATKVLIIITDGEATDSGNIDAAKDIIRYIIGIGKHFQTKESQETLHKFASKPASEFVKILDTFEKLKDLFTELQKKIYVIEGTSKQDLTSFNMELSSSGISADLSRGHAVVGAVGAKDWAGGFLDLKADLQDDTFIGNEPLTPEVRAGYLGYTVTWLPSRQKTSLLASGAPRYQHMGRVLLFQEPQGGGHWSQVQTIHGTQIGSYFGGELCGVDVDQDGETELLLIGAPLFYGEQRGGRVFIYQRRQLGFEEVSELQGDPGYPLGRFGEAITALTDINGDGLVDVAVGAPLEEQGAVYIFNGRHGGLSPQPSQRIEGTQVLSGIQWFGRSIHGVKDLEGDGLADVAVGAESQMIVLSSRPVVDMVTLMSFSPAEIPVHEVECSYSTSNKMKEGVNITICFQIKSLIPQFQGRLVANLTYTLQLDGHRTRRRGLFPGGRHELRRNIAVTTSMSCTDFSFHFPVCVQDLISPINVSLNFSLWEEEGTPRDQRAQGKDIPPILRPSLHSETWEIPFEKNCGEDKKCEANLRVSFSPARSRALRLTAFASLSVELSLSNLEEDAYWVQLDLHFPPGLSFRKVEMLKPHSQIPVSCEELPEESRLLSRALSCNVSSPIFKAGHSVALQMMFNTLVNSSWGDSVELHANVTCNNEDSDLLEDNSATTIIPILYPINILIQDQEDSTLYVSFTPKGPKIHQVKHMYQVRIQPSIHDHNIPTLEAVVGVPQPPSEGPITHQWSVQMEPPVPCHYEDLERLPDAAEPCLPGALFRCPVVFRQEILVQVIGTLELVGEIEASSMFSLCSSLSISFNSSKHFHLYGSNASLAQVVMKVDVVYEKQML
Sequence (P05107 23-700, chain 2 of 2, further chain): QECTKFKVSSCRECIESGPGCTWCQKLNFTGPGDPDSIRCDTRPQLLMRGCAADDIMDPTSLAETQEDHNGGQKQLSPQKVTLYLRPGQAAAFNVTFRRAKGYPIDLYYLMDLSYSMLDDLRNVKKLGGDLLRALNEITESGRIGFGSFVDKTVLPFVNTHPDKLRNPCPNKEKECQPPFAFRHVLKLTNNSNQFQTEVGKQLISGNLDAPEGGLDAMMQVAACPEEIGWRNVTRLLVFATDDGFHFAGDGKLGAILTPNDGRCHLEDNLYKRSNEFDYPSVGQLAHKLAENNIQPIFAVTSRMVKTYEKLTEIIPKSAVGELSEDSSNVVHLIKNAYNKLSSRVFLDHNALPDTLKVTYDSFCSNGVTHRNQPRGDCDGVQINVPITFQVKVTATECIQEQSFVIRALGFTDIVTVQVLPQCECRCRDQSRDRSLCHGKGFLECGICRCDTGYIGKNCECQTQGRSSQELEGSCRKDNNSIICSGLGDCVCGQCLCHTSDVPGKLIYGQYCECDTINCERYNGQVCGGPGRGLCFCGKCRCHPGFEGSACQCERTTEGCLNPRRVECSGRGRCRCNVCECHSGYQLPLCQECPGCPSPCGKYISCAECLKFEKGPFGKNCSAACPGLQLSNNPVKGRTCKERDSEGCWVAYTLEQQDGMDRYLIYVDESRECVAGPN

ICAM-1, sequence (P05362 28-480): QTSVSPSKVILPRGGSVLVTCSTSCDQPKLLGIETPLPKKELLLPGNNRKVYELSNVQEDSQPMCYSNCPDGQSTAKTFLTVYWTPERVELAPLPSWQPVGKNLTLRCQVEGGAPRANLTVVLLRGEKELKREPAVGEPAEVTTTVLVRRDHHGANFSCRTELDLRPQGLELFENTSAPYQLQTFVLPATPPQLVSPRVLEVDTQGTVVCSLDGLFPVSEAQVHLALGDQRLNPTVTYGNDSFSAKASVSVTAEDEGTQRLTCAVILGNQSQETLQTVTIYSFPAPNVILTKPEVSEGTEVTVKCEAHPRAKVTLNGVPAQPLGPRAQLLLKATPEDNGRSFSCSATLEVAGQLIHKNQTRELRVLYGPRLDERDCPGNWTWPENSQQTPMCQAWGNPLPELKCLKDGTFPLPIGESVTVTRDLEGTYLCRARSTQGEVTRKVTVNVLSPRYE

Question: For ICAM-1 (from UniProt P05362), which Kd is on record?
Answer: The Kd was 100 nM.
